According to paper PMC9367475:

Columns and labels:
[1] = target: DC-SIGN on THP-1 cells induced with PMA and IL-4 (DC-THP-1) (human (endogenous in THP-1)) (UniProt Q9NNX6)
[2] = target: human DC-SIGN expressed on HEK 293T cells (DC-HEK) (human) (UniProt Q9NNX6)
[3] = target: DC-SIGN on THP-1 cells induced with PMA and IL-4 (DC-THP-1) (human (endogenous in THP-1)) (UniProt Q9NNX6); experiment: cell binding assay (immunofluorescence read on a microplate reader); DC-HEK or DC-THP-1 cells in microtiter wells (1 x 10^5 cells/well); spike pseudotypes pre-incubated with or without rfhSP-D (20 µg/ml) added for 2 h at room temperature; fixed, anti-spike and Alexa Fluor 488 secondary antibody
[4] = target: human DC-SIGN expressed on HEK 293T cells (DC-HEK) (human) (UniProt Q9NNX6); experiment: as above

Substance | luciferase reporter activity (pseudotype transduction of DC-THP-1 cells), with rfhSP-D 20 µg/ml against untreated [1] | luciferase reporter activity (pseudotype transduction of DC-HEK cells), with rfhSP-D 20 µg/ml against untreated [2] | increase of binding with rfhSP-D (20 µg/ml) against untreated [3] | increase of binding with rfhSP-D (20 µg/ml) against untreated [4]
SARS-CoV-2 spike protein on lentiviral pseudotypes (from UniProt P0DTC2 14-1273) (natural protein) | 90% | 190% |  | 
SARS-CoV-2 spike protein on lentiviral pseudotypes (from UniProt P0DTC2 14-1273) (natural protein; other documents disagree on this pair) |  |  | 25% | 50%
